{
  "source": "paper PMC6613818",
  "system": "C[C@@H]1O[C@H](OP(=O)(O)OP(=O)(O)OC[C@H]2O[C@@H](n3cnc4c(=O)[nH]c(N)nc43)[C@H](O)[C@@H]2O)[C@@H](O)[C@H](O)[C@@H]1O",
  "experiment": "purified protein",
  "conditions": "apparent, acceptor LacNAc 3 mM, Tris-HCl pH 7.5, 37 °C",
  "data": [
    {"substance": "Hp3FT (Helicobacter pylori)", "values": [
      {"measurement": "Km", "result": "6.4480 ± 1.1360", "unit": "mM"},
      {"measurement": "kcat", "result": "0.617 ± 0.0417", "unit": "s⁻¹"},
      {"measurement": "kcat/Km", "result": 96, "unit": "M⁻¹ s⁻¹"}
    ]}
  ]
}
